Measurements reported in the nanobody polyreactivity screen of Harvey et al. (2022).

Experiment: yeast display, Sf9 membrane polyspecificity reagent, FACS + sequencing; frameworks hold sequencing errors
How it was run: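 After 36–48 hours of galactose induction, yeast (Saccharomyces cerevisiae BJ5465) displaying a synthetic nanobody library were stained at 4 °C for 1 hour with 10% biotinylated, detergent-solubilized Sf9 membrane reagent. Streptavidin microbeads enriched the stained cells before FACS sorting into low and high (top ~1%) gates on anti-HA and streptavidin fluorescence. Each clone's polyreactivity label reflects its gate of origin.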

Sequence | polyreactivity (PSR sort gate)
QVQLVESGAGLVKAGCSLRISCAASGSSFVTYDMGWYRQAPGKERELVAGISGSGSTNYADSVKGRFTISRDNAKNTVYLQMNSLKPEDTAVYYSAAEYEYLWSQYLTDYGYDYWGQGTQVTVSS | low polyreactivity
QVQLVESGGGLVQAGGSLRLSCAASGITFYFNAMGWYRQAPGKERELVAAITFSGSSTYYADSVKGRFTISRDKAKNTVYLQMNSLKPEDTAVYYCAAYFTRYDFRWHTYYYWGEGTQVTVSS | low polyreactivity
QVQLVESGGGLVQARGSLRLSSAASGSTFYDYAMGWYRHAPGKERELVAAISGNGDSTYYADSVKGRFTISRDNAKNTVYLQMNSLNPEDTAVYYCAAYLGWGYDYWGQGTQVTVSS | low polyreactivity
QVQLVETGGGLVQAGGSLRLSCAASGSIFVYYAMRWYRQAPGKERELVAAITIGASTDYADSVKGRFTISRDNAKNTVYLQMISVKPEDTAVYNCAADLYYGDYRTLPKADEYDYWGQGTQVTVSS | low polyreactivity
QVQLVESGGGLVQAGGSLRLSCAASGSTFGPYAMGWYRQAPGKERELVAAITSSGGTTYYADSVKGRFTISRDNAKNTVYLQMNSLKPEDTAVYYCNTRRHGWKGVAYDYWGQGTQVTVSS | low polyreactivity
QVQLVESGAGLVQAGGSLRLSCAASGRTFDKYAMGWYRQAPGKDRELVAAISGSGGRTYYADSVKGSFTISRDIAKNTVYLQMNSLKPEDTAFYYCAGDTGSYTYYYWGKGTQVTVSS | high polyreactivity
QVQLVESGGGLVQAGGSLRLSCAASGIIFYGYVMGWYRQAPGKERELVAAISKSGGSTYYADSVKGRFTISRDNAKNTVYLQMNSLKPEETAVYYCAAERKSFYRYNYWGQGTQVTVSS | high polyreactivity
QVQLVESGGGLVHAGGSLRLSCAASGFILYSYAMGWYRQAPGKERELVAAINSTGSTYYADSVKGRFTISRDNAKNTVYLQMNSLKPEDTAFYYCATDPWYQTDLSYDTPYYYWGQGKQVTVSS | low polyreactivity
QVQLQEGGGGLVQAGVSLRLSCAASGYISYGDVMGWNRQAPGEERELVASIGLDATTNYADSVKGRFTISRDNAKISVYLQMNSLKPEATAVYYCAADVGSGVLCGYWGQGTQMTVSS | high polyreactivity
QVQVVESGGGLVQAGGSLRLSCAASGFIIKDNAMGWYRQAPGKERELVAAITASGGRTYYADSVKGRFTISRDNAKNTVYLQMNSLKPEDTAVYYCAKRVKRPSESYNYNYYYWGQGTQVTVSS | high polyreactivity
QVQLVESGGGLVQAGGSLRLSCAASGSIFRQYAMGWYRQAPGKERELVAAITYSGGNTYYADSVKGRFTISRDNAKNTVYVQMNSLKPEDTAVYYCAADYGSRSWEYNYWGQGTQVTVSS | low polyreactivity
QVQLVESAGGLVQAGGSLSLSCAASGFNFKGYAMGSYRQAPGKERELVAAISSSGTSTYYADSVKGRFTISRDNEKNTVYLQMNSLKPEDTAVYYCARVSKRTWSGYYYWGQGTQVTVSS | high polyreactivity
QVQLVESGGGLVQAGGSLRLSCAASGSTFCDYTMGVYRQAPGKERELLAAISRRGGITYYADSVKGRFTISRDNAKNTVYLQMNSLKPEDTAVYYCNKVYNPKSYIQYDYWGQGTQVTVSS | high polyreactivity
QVQLVESGGGLVQAGGSLRLSCAASGLTFPYYVMGWYRQAPGKERELVAAISSSGGSTYYADSVKGRFTISRDNAKNTVYLQMNSLKPEDTAVYYCNALGHFSKIATYDYWGQGTQVTVSS | low polyreactivity
QVQLVESGGGLVQAGGSLRLSCAASGIIFGGYDMGWYRQATGKERELVAAISWSGGSTYYADSVKGRFTISRDTAKNTVYLQMNSLKPEDTAVYYCAAAYYAPTRDYYYWGQGTQVTVSS | low polyreactivity
QVQLVESGGGLVQAGGSLRLSCAASGIIFKPYAMGWYRPAPGKERQLVAAITVNGGTTYYADSVKGRFTISRDNAKKTVNVQMNSLKPEDPAFYYCNRGRPGGPSWYHYDYWGQGTEVTVSS | high polyreactivity
QDQHVESAGGLVQAAGSLRLSCAASGSTFWYYVMGWSRQAPGQVRELVAAISTRGDSTYYADSVKGRFTISRDNANNSVYLQMYSLKPEDTAVYYCAKSRQSSGRVRFDYWGQGTQVTVSS | low polyreactivity
QVQLVESGGGLVQAGGSLRLSCAASGGTFWYYAMGWYRQAPGKERELVASISRGGSTNYADSVKGRFTISRDNAKNTVYLQMNSLKPEDTAVYYCNAGLRVGPRRYVDYEYDYWGQGTQVTVSS | low polyreactivity
QVQLVESGGGLVQAGGSLRLSCAASGRIIYGNAMGWYRQAPGKERELVAAITSGGSTNYADSVKGRFTISRDNAKNTVYLQMNSLKPEDTAVYYCNAVVYSPYRYEYWGQGTQVTVSS | low polyreactivity
QVHLVESGGGLVQGGGSLRLSCAASGGTIYYYAMGWYRQAPGKERELDAANRCSGGSTYYADSVKGRFTISRDIAKNTVSLQMNSLKPEDTAVYYCPSRGGNPKGYGYLAFNYWGQGTQVTVSS | high polyreactivity
QVQLVESGGGLVQAGGSLRLSCAASGRTFAAYAMGWYRQAPGKERELVAAIRRGGTTNYADSVKGRFTISRDNAKNTVYLQMNSLKPEDTAVYYCAALAPYSRSWVTYDYWGQGTQVTVSS | low polyreactivity
QVQLVESGGVLVQAGGSLRLSCAASGRTFYSYAMGWYRQAPGNERELVAAITSSGGSTYYADSVKGRFTISRDNAKNTVYLQMNRLKPEDTAVYYCAAPRGRHFDYWGQGTQVTVSS | high polyreactivity

Sequence | polyreactivity (PSR sort gate)
QVQLVESGGGLVQAGGSLRLSCAASGITFFVYAMGWYRQAPGKERELVAAITSGDSTSYADSVKGRFTISRDNAKNTVYLQMNSLKPEDTAVYYCAAEQVTIEDGVYFDFNSWGQGTQVTVSS | low polyreactivity
QVQLVESGGGLVQAGGSLRLSCAASGNIFSRYAMGWYRKAPGKERELVAAISKSGGSTYYADSVKGRFTISRDNAKNTVYLQMNSLKPEDSAVYYCAAYSFFLGYPEFDYWGQGTQVTVSS | high polyreactivity
QVQIVESGGGLVQAGGSLRLSCAASGFTSQFYAMGWYRQAPGKEMELVAAISSGSSTYYADSVKGRFTSSRDNAKNTVYLQMNSLKPEDTAVYYCATTHKTLRRYDSWGQGTKVTVSS | low polyreactivity
QVQLVESGGGLVQAGGSLRLSCAASGRIFGGNAMGWYRQAPGKERELVAAITTRGGSTYADSVKGRFTISRDNAKNTVYLQMNSLKPEDTAVYYCNKRYVIRRRGYDYWGQGTQVTVSS | low polyreactivity
QVQLVESGGGLVQAGGSLRLSCAASGSIFGRYAMGWYRQAPGKERELVAAISSSGGRTYYADSVKGRFTISRDNAKNTVYLQMNSLKPEDTAVYYCNAGTPYRGDYWGQGTQVTVSS | high polyreactivity
QVQLVESGGGLVQAGGSLRLSCAASGFTFYVYVMGWYRPAPGKERELVAGISRGGSTYYADSVKGRFTISRDTAKNTVYLQMNSLKPEDTAVYYCNARRAWSSTYGYWGQGTQVTVSS | high polyreactivity
QVQLVESGGGLVQAGGSLRLSSAASGFTFDYYAMGWYRQAPGKERELVAAISTSGGSTYYADSVKGRFTISRDNAKNTVYLQMNSLKPEDTAVYYCNVVFYEYSSVSYDYWGQGTQVTVSS | high polyreactivity
QVQLVESGGGLVQAGGSLRLSCAASGRIFSKNAMGWCRQAPGKERELVAGITSISGSTYYADSVKGRFTISRDNAKNTVYLQMNSLKPEDTAVYYCAARFPHRHYLLYTYDYWGQGTQVTVSS | low polyreactivity
QVQLVESGGGLDQAGGSLRLSCAASGSTFNSYVMGCYRQAPGKEREFVAAISWSGVRTYYADSVKGRFTISRDNAKNTVFLQMNSLIPEDTAVYYCAVRSGRRNYYRPAFGYWGQGTQVTVSS | high polyreactivity
QVQLVESGGGLVQAGGSLRLSCAASGSTFNFNAMGWYRQAPGKERELVAAISSSGGSTYYADSVKGRFTISRDNAKNTVYLQMNSLKPEDTAVYYCATVLRKSPLYYYWGQGTQVTVSS | high polyreactivity
QVQLVESGGGLVQAGGSLRLSCAGSGATYERYAMGWSRPAPGKERALVAASNKRGGNTYYADSVKGRFTISRDNAKKTVYLQMNSLKPEDTAVYYCAADHLDRTEFPYYYWGQGTQVTVSS | high polyreactivity
QVQLVESGGGLVQAGGSLRLSCAASGSISVWYVMGWYRPAPGTERELVAAITRSGGSTFYADSVKGRFTISRDNAKNTVYLQMNSLKPEDTAVYYCAADGGVAWGYGYWGQGTQVTVSS | low polyreactivity
QVQLVESGGGLVQAGGSLRLSCAASGNIFSFYAMGWYRQAPGKERELVAAINWSGGDTYYADSVKGRFTISRDNAKNTVYLQMNSLKPEDTAVYYCAAEYYYQYYPGGYDYWGQGTQVTVSS | high polyreactivity
QVQLVESGGGLVQAGGSLRLSCAAYGRTLYYNTMGWYRQAPGKERELVASIRWDGGRTYYADSVKGRFTISRDNAKNTVYLQLNSLKPEDTAVYYCAKDGGYYYGTYAYDGCFDYWGQGTQVTVSS | low polyreactivity
QVQLVESGGGLVQAGGSLRLSCAASGGTFSYYAMGWYRQAPGKERELVAAITYSGDRTYYADSVKGRFTISRDNAKNTVYLQMNSLKPEDTAVYYCNAVRGSWYGYYYWGQGTQVTVSS | high polyreactivity
QVQLVESGGGLVQAGGSLRLSCAASDTPSSSMLMGWYRQAPGKERELVAAISGSDGTTYYADSVKVRFTISRDNAKNTVYLQMNSLKPEDTAVYYCAADDRVYSGYIKDDYWGQGTQVTVSS | low polyreactivity
PVQLVESGGGLVQAGGSLRLSCAASGSTFPYYDMGWYRPAPGKEREMVAAISASTGSTYYADSVKGRFTISRDKAKITVYLHMYSLKPEVTAVYYCAAAYYYWYTAYDYWGQGTQVTVSS | high polyreactivity
QVQLVESGGCLFQAGGSLRLSCAASGFIFGHNAMGWYRQAPGTERELVAAITWSGGRTYYADSVKGRFTISRDNAKNTVYLQMISLKPEDKAVDYCNRRGRWRKYDYWGQGTQVTVSS | high polyreactivity
LVQLVESGGALVQAGGSLRLSCAASGLIFYDYAMGWYRQAPGNDRELVAAISKGGGSTYYADSVKGRFTISRDYAKNSVYLQMNSLNTEDTAVYYGAASTSHTTDTRYDYWGQGTQVTVSS | low polyreactivity
QVQLEESGGGLVQAGGSLRLSCAASGSIFAPYVMGWYRQATGKERELVAAITESGGRTYYADSVKGRFTISRDNAKNTVYLQMNSLKPEDTAVYYCAARTYDRNRQLRRQWYDYWGQGTQVTVSS | high polyreactivity
QVQLVESGGGLVQAGGSLRLSCAASGSTSSLNAMGWYRQAPGKEREFVATISFGGGRTYYADSVKGRFTISRDNAKNTVYLQMNSLKPEDTAVYYCAAVGSRWFSQTWRDYWGQGTQVTVSS | high polyreactivity
